Source: patent US20200080117A1 (UNIVERSIDAD POLIT CNICA DE MADRID, published 2020)

Molecular target: T1, NifU (A. vinelandii NifU expressed in yeast strain SB33Y as SU9-NifU) (Azotobacter vinelandii, UniProt P05340 2-312)
T1 sequence: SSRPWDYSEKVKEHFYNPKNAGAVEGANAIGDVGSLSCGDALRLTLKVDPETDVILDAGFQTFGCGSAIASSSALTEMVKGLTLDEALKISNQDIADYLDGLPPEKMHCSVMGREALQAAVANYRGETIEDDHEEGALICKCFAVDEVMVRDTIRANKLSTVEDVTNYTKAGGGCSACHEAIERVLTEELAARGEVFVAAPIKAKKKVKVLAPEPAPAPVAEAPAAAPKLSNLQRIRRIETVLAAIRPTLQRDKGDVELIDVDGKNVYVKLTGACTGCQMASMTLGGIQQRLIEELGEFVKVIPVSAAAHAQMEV
Test: co-purification on Strep-Tactin column from SB33Y extract, immunoblot

B1: TS-NifB^USF (SU9-Twin-Strep-NifBMi purified from yeast strain SB33Y, co-expressed with NifU, NifS and FdxN-HA) (enzyme)
chain: not shown
notes: Same polypeptide as m1, purified from SB33Y; As isolated it carries about 6.1 Fe per monomer as [4Fe-4S] clusters and is active; The range 68-405 was derived from the printed N-terminus SSSAW; also called SU9-TS-NifBMi
- binding result: no binding
